Where two headings read alike, the source gives them in different places. One block for each binder: values may come before it.
Columns and labels:
[1] = target: T1, human CD73 on CHO-K1 cells overexpressing human CD73 (human, UniProt P21589 27-549); experiment: flow cytometry on CHO-K1 cells overexpressing human CD73 (CHO-K1-hCD73) [continued) D]
T1 construct: whole, on cells; also called CHO-K1-hCD73
T1 sequence (looked up): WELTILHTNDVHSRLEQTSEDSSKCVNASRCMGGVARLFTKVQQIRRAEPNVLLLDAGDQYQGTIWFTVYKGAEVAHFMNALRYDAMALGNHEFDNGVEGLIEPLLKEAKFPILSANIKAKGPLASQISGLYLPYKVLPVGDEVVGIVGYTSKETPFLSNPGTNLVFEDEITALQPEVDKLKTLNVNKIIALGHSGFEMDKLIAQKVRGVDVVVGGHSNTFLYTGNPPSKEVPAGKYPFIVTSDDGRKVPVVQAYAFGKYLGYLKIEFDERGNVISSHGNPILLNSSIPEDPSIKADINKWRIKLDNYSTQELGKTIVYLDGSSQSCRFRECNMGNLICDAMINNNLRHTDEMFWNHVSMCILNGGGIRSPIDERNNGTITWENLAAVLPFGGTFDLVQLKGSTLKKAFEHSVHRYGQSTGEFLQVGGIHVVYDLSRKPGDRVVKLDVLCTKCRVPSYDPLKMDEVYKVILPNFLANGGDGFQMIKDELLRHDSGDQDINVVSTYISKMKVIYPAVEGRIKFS
Experimental: (§1) In order to investigate the binding activity of the CD73×PD-L1 bispecific antibody to human CD73 and PD-L1, the binding experiment at the cellular level was performed using CHO-K1 cell strains overexpressing human CD73 or PD-L1 (CHO-K1-hCD73 or CHO-K1-hPD-L1). Briefly, the CHO-K1-hCD73 and CHO-K1-hPD-L1 cells were digested and resuspended in an F-12K complete medium, and the cell density was adjusted to 1×10⁶ cells/mL. The cells were seeded in a 96-well V-bottom plate (Corning, #3894) at 100 μL/well, followed by the addition at 100 μL/well and centrifugation at 500 g at 4° C. for 5 min, and then the supernatant was discarded. Antibodies were 3-fold diluted to a maximum final concentration of 50 nM, and a total of 8 concentrations were set. 100 μL of the diluted antibodies was added to the cells, and the cells were incubated away from light at 4° C for 1 h. Thereafter, the cells in each well were rinsed twice with 100 μL of pre-cooled PBS, and centrifuged at 500 g at 4° C. for 5 min, and then the supernatant was discarded. Then 100 μL of a fluorescent secondary antibody (goat anti-human IgG (H+L) secondary antibody, Alexa Fluor® 488 conjugate, Invitrogen, #A11013, diluted at the ratio of 1:1000) was added to each well. […] Finally, the cells in each well were resuspended in 200 μL of pre-cooled PBS, and the fluorescence signal values were read using a BD FACS CANTOII.

[2] = target: T1, human CD73 on CHO-K1 cells …; experiment: flow cytometry on CHO-K1 cells overexpressing human CD73 (CHO-K1-hCD73) [continued) C]
Experimental: as §1

[3] = target: T1, human CD73 on CHO-K1 cells …; experiment: flow cytometry on CHO-K1 cells overexpressing human CD73 (CHO-K1-hCD73)
Experimental: In order to investigate the binding activity of the CD73×PD-L1 bispecific antibody to human CD73 and PD-L1, the binding experiment at the cellular level was performed using CHO-K1 cell strains overexpressing human CD73 or PD-L1 (CHO-K1-hCD73 or CHO-K1-hPD-L1). Briefly, the CHO-K1-hCD73 and CHO-K1-hPD-L1 cells were digested and resuspended in an F-12K complete medium, and the cell density was adjusted to 1×10⁶ cells/mL. The cells were seeded in a 96-well V-bottom plate (Corning, #3894) at 100 μL/well, followed by the addition at 100 μL/well and centrifugation at 500 g at 4° C. for 5 min, and then the supernatant was discarded. Antibodies were 3-fold diluted to a maximum final concentration of 50 nM, and a total of 8 concentrations were set. 100 μL of the diluted antibodies was added to the cells, and the cells were incubated away from light at 4° C for 1 h. Thereafter, the cells in each well were rinsed twice with 100 μL of pre-cooled PBS, and centrifuged at 500 g at 4° C. for 5 min, and then the supernatant was discarded. Then 100 μL of a fluorescent secondary antibody (goat anti-human IgG (H+L) secondary antibody, Alexa Fluor® 488 conjugate, Invitrogen, #A11013, diluted at the ratio of 1:1000) was added to each well. The plate was incubated away from light at 4° C. for 30 min. The cells in each well were then rinsed twice with 200 μL of pre-cooled PBS and centrifuged at 500 g at 4° C. for 5 min, and then the supernatant was discarded. Finally, the cells in each well were resuspended in 200 μL of pre-cooled PBS, and the fluorescence signal values were read using a BD FACS CANTOII.

[4] = target: T2, human PD-L1 on CHO-K1 cells overexpressing human PD-L1 (human, UniProt Q9NZQ7 19-290); experiment: flow cytometry on CHO-K1 cells overexpressing human PD-L1 (CHO-K1-hPD-L1) [continued) F]
T2 construct: whole, on cells; also called CHO-K1/hPD-L1; CHO-K1-hPD-L1
Experimental: as §1

[5] = target: T3, human PD-L1 protein with histidine tag (ACROBiosystems #PD-1-H5258) (human, UniProt Q9NZQ7 19-238); experiment: BLI (Octet Red96e); His-tagged human PD-L1 captured on HIS1K sensor, antibody at 60 nM; 1:1 fit
T3 construct: Bought protein; also called His PD-L1; human PD-L1 proteins; not shown: histidine tag
Experimental: In this example, affinity determination was performed on the affinity-matured mutants of PR002082 using an Octet Red96e instrument. […] The binding kinetics between the antigen and the antibody was analyzed by the biolayer interferometry (BLI) technique using an Octet molecular interaction analyzer (ForteBio, model: Octet Red96e).
When the affinity of the antigen for the antibody was determined, the rotation speed of the sensor was set at 1000 rpm/min. The 2 HIS1K sensors placed in a column were first equilibrated for 10 min in test buffer, then His PD-L1 was captured with the HIS1K sensor at a capture height of 0.9-1.1 nm, then the HIS1K sensor was equilibrated for 2 min in the test buffer, then the HIS1K sensor was bound to the antigen-binding protein (60 nM and 0 nM) for 3 min, and finally the mixture was dissociated for 15 min. The HIS1K sensor was immersed in a 10 mM glycine solution (pH 1.5) for regeneration to elute the proteins bound to the sensor.
When data analysis was performed using Octet Data Analysis software (Fortebio, version 11.0), the reference signals were subtracted by a single reference mode (reference well), the data were fitted by a “1:1 Local/full fitting” method, and the kinetic parameters of the binding of the antigen to the antibody were calculated to obtain Kₒₙ (1/Ms) values, Kdis (1/s) values and KD (M) values.

[6] = target: T2, human PD-L1 on CHO-K1 cells …; experiment: flow cytometry on CHO-K1 cells overexpressing human PD-L1 (CHO-K1/hPD-L1)
Experimental: (§2) In the example, in order to study the in vitro binding activity of the PD-L1 antigen-binding protein to human/cynomolgus monkey PD-L1, cell-level binding experiments were performed using CHO-K1 cell strains overexpressing human PD-L1 (CHO-K1/hPD-L1, GenScript, M00543) or CHO-K1 cell strains overexpressing cynomolgus monkey PD-L1 (CHO-K1/cynoPD-L1, GenScript, M00573). Briefly, the PD-L1 cells were digested and resuspended in an F-12K complete medium, and the cell density was adjusted to 1×10⁶ cells/mL. The cells were seeded in a 96-well V-bottom plate (Corning, 3894) at 100 μL/well, followed by the addition of the test antigen-binding proteins serially diluted 5-fold with concentrations that were twice the final concentrations at 100 μL/well. The mixtures were well mixed. The highest final concentration of the antigen-binding proteins was 100 nM. A total of 8 concentrations were set. An isotype antibody hIgG1 iso was used as a control. The cells were incubated away from light at 4° C. for 1 h. Thereafter, the cells in each well were rinsed twice with 100 μL of pre-cooled PBS, and centrifuged at 500 g at 4° C. for 5 min, and then the supernatant was discarded. Then 100 μL of a fluorescent secondary antibody (goat anti-human IgG (H+L) secondary antibody, Alexa Fluor 488 conjugate, Invitrogen, A11013, diluted at the ratio of 1:1000) was added to each well. The plate was incubated away from light at 4° C. for 30 min. The cells in each well were then rinsed twice with 200 μL of pre-cooled PBS and centrifuged at 500 g at 4° C. for 5 min, and then the supernatant was discarded. Finally, a pre-cooled PBS was added at 200 μL/well to resuspend the cells. Fluorescence signal values were read using a BD FACS CANTOII. Fluorescence signal values were read using a flow cytometer BD FACS CANTOII or FACS ACEA, and the data were processed and analyzed using FlowJo v10 (FlowJo, LLC) software. The data were processed and analyzed by plotting using GraphPad Prism 8 software, and binding curves, EC50 values and other parameters were acquired through four-parameter nonlinear fitting.

[7] = target: T2, human PD-L1 on CHO-K1 cells …; experiment: flow cytometry on CHO-K1 cells overexpressing human PD-L1 (CHO-K1/hPD-L1) [continued) F]
Experimental: as §2

[8] = target: T2, human PD-L1 on CHO-K1 cells …; experiment: flow cytometry on CHO-K1 cells overexpressing human PD-L1 (CHO-K1/hPD-L1) [continued) D]
Experimental: as §2

[9] = target: T2, human PD-L1 on CHO-K1 cells …; experiment: flow cytometry on CHO-K1 cells overexpressing human PD-L1 (CHO-K1/hPD-L1) [continued) E]
Experimental: as §2

[10] = target: T2, human PD-L1 on CHO-K1 cells …; experiment: flow cytometry on CHO-K1 cells overexpressing human PD-L1 (CHO-K1-hPD-L1) [continued) E]
Experimental: as §1

[11] = target: T4, cynomolgus monkey PD-L1 on CHO-K1 cells overexpressing cynomolgus monkey PD-L1 (cynomolgus monkey, UniProt G7PSE7 19-290); experiment: flow cytometry on CHO-K1 cells overexpressing cynomolgus monkey PD-L1 (CHO-K1/cynoPD-L1)
T4 construct: also called CHO-K1/cynoPD-L1; GenScript M00573
Experimental: as §2

[12] = target: T4, cynomolgus monkey PD-L1 on CHO-K1 cells …; experiment: as above; remark: listed apart in the source
Experimental: as §2

T4 sequence (G7PSE7 entry or part of it limits assumed): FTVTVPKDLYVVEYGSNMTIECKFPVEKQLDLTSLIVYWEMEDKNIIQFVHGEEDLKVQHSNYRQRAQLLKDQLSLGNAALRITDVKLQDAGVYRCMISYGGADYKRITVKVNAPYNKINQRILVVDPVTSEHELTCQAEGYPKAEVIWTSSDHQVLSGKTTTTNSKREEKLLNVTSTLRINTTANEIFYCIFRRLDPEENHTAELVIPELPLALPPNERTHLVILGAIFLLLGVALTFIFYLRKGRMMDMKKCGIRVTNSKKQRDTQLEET
T3 sequence (Q9NZQ7 19-238 limits assumed): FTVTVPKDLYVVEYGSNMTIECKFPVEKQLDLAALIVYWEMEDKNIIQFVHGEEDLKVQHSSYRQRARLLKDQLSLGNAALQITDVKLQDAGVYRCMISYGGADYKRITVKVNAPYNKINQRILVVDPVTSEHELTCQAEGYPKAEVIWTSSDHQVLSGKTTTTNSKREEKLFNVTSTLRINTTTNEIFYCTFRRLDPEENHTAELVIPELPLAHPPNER
T2 sequence (Q9NZQ7 19-290): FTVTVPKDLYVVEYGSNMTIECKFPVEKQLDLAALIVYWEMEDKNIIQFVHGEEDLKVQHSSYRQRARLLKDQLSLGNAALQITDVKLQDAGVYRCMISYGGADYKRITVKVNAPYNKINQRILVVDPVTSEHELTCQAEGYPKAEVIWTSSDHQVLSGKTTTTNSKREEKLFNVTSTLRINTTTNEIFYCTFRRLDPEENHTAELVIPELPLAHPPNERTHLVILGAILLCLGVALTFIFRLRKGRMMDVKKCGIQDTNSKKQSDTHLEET

EC50 [1]: 0.737 nM | EC50 [2]: 1.73 nM | EC50 [3]: 0.352 nM
B1: PR000846 (antibody, human IgG1, kappa, L234A L235A, V domains shown)
VH: QVQLVESGGGVAQPGRSLSLSCAASGFTFSDYGMHWVRQAPGKGLEWVALIWYDASFEYYADSVKGRFSISRDNSKNTLYLQMNSLRAEDTAVYYCVRDAQWGSRLDYWGQGTLVTVSS
VL: KIVMTQSPATLSLSPGERATLSCRASQSVSRYLAWYQQKPGQAPRLLIYDASNRATGIPARFSGSGSGTDFTLTISSLEPEDFAVYYCQQRSNWIFTFGPGTKVDIKR
notes: Anti-CD73 IgG (human IgG1 constant region, human Ig kappa), PTM removed; also called anti-CD73 antibody PR000846; parent monoclonal antibody PR000846

EC50 [4]: 2.93 nM | Kd [5]: 5.61 nM | koff [5]: 0.00118 s⁻¹ | kon [5]: 210000 M⁻¹ s⁻¹ | EC50 [6]: 0.86 nM | Maximum MFI [6]: 24500 MFI | EC50 [7]: 1.31 nM | Maximum MFI [7]: 430000 MFI | EC50 [8]: 1.23 nM | Maximum MFI [8]: 387000 MFI | EC50 [9]: 1.24 nM | Maximum MFI [9]: 381000 MFI | EC50 [10]: 1.17 nM | EC50 [11]: 0.386 nM | EC50 [12]: 1.52 nM | Maximum MFI [12]: 12100 MFI
B2: PR002082 (antibody, human IgG1, V domains shown)
VH: QVQLVESGGGVVQPGMSLRLSCAASGFTFSSYGMYWVRQAPGKGQEWVAIIWYDGTKKHYADSVKGRFTISRDNSKNTLYLEMNSLRVEDTAVYYCAKNRAIFGVVPDASDIRGQGTMVTVSS
notes: HCAb; also called PTM variant of PR000960 (N28T, N31S)

EC50 [3]: 0.99 nM | EC50 [10]: 1.66 nM
B3: PR003739 (bispecific antibody, human IgG1, kappa, L234A L235A)
heavy: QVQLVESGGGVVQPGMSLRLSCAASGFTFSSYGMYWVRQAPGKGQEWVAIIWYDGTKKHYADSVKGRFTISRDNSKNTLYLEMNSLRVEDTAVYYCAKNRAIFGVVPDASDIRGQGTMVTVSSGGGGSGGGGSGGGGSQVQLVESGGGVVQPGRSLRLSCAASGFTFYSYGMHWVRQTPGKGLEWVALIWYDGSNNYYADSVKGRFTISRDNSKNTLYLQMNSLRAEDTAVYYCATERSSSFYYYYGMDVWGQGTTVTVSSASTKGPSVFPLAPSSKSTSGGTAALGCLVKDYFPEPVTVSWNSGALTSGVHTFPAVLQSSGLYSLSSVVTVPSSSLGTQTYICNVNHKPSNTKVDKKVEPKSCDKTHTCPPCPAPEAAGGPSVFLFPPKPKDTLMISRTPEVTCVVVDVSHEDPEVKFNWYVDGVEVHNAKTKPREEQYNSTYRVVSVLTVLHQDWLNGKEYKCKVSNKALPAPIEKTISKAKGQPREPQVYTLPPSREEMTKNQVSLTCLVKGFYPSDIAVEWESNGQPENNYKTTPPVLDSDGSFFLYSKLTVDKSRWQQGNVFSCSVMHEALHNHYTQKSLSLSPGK
light: DIQLTQSPSFLSTSVGDRVTITCRASQGISSYLAWYQQKPGKAPKLLIYAASTLQSGVPSRFSGSGSGTEFTLTISSLQPEDFATYYCQQLNSYPYTFGQGTELEIKRTVAAPSVFIFPPSDEQLKSGTASVVCLLNNFYPREAKVQWKVDNALQSGNSQESVTEQDSKDSTYSLSSTLTLSKADYEKHKVYACEVTHQGLSSPVTKSFNRGEC
notes: light chain of PR001408; also called CD73×PD-L1 bispecific antibody PR003739

EC50 [4]: 2.17 nM | EC50 [3]: 2.09 nM
B4: PR004295 (bispecific antibody, human IgG1, kappa, L234A L235A)
heavy: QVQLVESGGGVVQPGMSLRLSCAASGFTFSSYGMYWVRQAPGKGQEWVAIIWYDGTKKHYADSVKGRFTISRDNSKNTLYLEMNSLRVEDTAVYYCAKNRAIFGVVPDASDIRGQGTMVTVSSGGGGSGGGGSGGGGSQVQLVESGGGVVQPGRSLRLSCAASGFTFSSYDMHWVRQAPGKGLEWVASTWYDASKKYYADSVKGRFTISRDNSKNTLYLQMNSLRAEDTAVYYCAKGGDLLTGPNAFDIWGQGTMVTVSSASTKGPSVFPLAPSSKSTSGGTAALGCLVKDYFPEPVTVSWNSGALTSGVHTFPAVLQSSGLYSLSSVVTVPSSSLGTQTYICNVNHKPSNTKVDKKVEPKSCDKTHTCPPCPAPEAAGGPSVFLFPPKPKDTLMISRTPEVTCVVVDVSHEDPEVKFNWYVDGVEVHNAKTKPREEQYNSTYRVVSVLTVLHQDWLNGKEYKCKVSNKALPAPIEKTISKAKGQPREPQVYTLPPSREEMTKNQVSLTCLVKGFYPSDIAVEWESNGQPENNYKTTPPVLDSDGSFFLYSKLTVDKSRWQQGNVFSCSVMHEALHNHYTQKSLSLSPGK
light: DIQMTQSPSTLSASVGDRVTITCRASQSISSWLAWYQQKPGKAPKLLIYKASSLESGVPSRFSGSGSGTEFTLTISSLQPDDFATYYCQQYDNYENTFGQGTKLEIKRTVAAPSVFIFPPSDEQLKSGTASVVCLLNNFYPREAKVQWKVDNALQSGNSQESVTEQDSKDSTYSLSSTLTLSKADYEKHKVYACEVTHQGLSSPVTKSFNRGEC
notes: light chain of PR003836; also called CD73×PD-L1 bispecific antibody PR004295
